What all share (assay): cell-based or functional assay
Assay [1] has as its target CaV2.2 expressed in human embryonic kidney 293 (HEK293) cells.
The target of assay [2] is CaV2.2 in transfected neurons.
The target of assay [3] is CaV2.2 in dorsal root ganglion neurons from Nf1+/- mice (mouse) (UniProt O55017).
Chain of CaV2.2 in dorsal root ganglion neurons from Nf1+/- mice (mouse) (O55017 whole entry): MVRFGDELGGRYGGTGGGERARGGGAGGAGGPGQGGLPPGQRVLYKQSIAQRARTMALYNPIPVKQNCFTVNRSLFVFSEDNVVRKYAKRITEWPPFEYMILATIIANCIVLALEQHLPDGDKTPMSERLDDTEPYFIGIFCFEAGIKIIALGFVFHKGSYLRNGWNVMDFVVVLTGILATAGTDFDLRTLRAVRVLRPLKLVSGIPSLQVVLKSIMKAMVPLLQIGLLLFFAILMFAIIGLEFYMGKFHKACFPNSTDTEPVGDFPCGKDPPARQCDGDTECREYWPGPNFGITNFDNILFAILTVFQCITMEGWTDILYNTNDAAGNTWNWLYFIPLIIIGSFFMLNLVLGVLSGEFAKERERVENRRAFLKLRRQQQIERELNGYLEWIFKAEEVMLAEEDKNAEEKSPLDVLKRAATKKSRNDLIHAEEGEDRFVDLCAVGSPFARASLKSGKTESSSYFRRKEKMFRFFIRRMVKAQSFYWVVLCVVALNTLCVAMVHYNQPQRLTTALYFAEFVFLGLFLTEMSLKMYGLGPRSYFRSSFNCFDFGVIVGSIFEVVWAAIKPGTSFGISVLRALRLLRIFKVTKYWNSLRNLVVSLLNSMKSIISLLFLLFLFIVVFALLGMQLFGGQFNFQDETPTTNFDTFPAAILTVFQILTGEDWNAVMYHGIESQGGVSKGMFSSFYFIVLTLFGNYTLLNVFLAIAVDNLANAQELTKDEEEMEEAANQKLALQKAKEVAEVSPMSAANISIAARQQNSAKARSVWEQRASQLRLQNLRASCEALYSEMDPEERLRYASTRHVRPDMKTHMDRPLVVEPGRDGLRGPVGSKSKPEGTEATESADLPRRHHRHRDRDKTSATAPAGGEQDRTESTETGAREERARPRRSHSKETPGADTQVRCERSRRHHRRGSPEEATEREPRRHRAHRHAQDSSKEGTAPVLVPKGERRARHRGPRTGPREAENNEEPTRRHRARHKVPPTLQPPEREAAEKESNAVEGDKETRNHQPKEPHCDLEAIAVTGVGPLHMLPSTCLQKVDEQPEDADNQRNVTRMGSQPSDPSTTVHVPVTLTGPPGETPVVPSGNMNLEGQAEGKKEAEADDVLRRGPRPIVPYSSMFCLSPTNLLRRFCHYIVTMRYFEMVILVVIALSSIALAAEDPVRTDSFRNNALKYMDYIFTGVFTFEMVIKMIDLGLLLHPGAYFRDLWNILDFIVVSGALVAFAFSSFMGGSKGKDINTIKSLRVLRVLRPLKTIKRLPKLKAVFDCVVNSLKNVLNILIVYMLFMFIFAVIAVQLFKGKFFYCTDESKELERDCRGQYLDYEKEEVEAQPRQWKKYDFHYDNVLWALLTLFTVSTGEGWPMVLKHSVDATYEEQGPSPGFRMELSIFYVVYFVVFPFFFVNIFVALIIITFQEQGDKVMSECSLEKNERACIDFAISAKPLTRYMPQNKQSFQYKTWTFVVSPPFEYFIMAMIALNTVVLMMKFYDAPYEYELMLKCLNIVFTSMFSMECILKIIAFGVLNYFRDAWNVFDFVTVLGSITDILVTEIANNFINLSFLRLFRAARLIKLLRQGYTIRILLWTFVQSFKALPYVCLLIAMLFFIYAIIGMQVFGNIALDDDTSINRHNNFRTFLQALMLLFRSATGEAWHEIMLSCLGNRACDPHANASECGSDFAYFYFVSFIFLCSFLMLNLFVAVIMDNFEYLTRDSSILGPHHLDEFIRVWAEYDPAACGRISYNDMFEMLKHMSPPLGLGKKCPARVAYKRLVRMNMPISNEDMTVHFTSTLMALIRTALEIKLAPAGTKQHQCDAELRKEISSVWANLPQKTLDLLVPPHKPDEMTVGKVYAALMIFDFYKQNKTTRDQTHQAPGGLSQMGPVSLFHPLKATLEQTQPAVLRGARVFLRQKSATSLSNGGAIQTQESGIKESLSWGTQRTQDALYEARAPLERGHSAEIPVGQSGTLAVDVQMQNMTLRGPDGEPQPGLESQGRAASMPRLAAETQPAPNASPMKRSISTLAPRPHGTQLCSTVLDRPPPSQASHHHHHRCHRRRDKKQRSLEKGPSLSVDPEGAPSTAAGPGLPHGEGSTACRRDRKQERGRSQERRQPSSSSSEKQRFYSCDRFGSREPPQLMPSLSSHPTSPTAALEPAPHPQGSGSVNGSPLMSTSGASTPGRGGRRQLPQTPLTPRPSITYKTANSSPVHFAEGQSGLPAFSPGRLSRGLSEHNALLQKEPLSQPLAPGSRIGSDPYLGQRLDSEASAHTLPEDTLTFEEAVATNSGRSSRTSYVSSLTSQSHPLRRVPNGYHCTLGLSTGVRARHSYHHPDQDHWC

Regarding “CBD3 peptide fused to enhanced green fluorescent protein (EGFP)”, in assay [1], the cells exhibiting CaV2.2 staining on the surface amounted to 10%. In assay [2], this substance displayed a reduction of peak Ca^2+ current density compared to CRMP-2 neurons (whole-cell voltage clamp) of 64%.

As for TAT-CBD3 (peptide), in assay [3], the reduction in KCl-stimulated CGRP release compared with TAT-control (10 µM TAT-CBD3) stood at 85%.

For the origin of these results see patent US20180117114A1, “PEPTIDES THAT MODULATE THE EFFECT OF THE CRMP: NEUROFIBROMIN COMPLEX ON SYNAPTIC TRANSMISSION” (Indiana University Research and Technology Coporation, priority 2015, published 2018).
